Target: the molecule itself
Assay: SEC; Superdex 200 Increase 10/300 GL; molecular weight from elution, consistent with two molecules

B1: PnaoΔN30 (residues 31 to 497) (enzyme, Pseudomonas putida S16, UniProt F8G0P1 31-496, looked up)
chain: IASQLLTLSAPAEAAVKTNVGPSRAGVGYDVIVIGGGFAGVTAAREASRSGLKTLILEGRSRLGGRTFTSKLQNQKVELGGTWVHWTQPNVWTEIMHYGLEVEETVGLANPETVIWVTEDNVKRAPAAEAFEIFGSACNEYYKEARNIYPRPFEPFFERKKLQHVDGLSAADYLEKLPLTREQKDMMDSWLSGNGHNYPETIAYSEIMRWFALSNFNMPTMFDSIARYKIKTGTHSLLEAIMADGNSEVKLSTPVTKVNQDKDKVTVTTEDGVFTASAVIVAVPINTLHDIEYSPKLSAAKVDMGSQRHAGAGVKGYIRVKQNVGNVMTYAPARNKLTPFTSVFTDHVDESGTLLIAFSADPKLIDINDIKAVEKALQPLLPGVEVTASYGYDWNLDPFSKGTWCTYRPNQTTRYLTELQKREGRLFFAGSDMANGWRGFIDGAIENGREVGHQVATYLKRENDNA
notes: Pnao, flavin-dependent pseudooxynicotine oxidase of Pseudomonas putida S16, N-terminal truncation of 30 residues, residues 31 to 497; Cloned into pET-28a between NcoI and XhoI, which would likely give a C-terminal His6 tag (surmised); also called pseudooxynicotine amine oxidase; source: E. coli BL21(DE3), purified (Ni2+-NTA, size-exclusion chromatography)
stoichiometry N: 2

Reference: paper doi:10.1101/2024.07.11.603087, “Rational Design of a Flavoenzyme for Aerobic Nicotine Catabolism” (bioRxiv, 2024)
